Data on one substance can be found in PMC6885551.

The test addresses Salmonella FraB deglycase, wild type (Salmonella enterica). Kind of test: native MS.

As usually defined, the Kd is the concentration at which binding is half-saturated. A lower Kd goes with higher affinity. The substance “Salmonella FraB deglycase, wild type (enzyme)” had a dissociation constant (Kd) of 31 to 63 nM.
